{"source": "paper PMC6433294", "about": "“Differential thermal stability, conformational stability and unfolding behavior of Eis proteins from Mycobacterium smegmatis and Mycobacterium tuberculosis” (PLoS ONE, 2019)", "key": {"[1]": {"test_system": "NC[C@H]1O[C@H](O[C@H]2[C@H](O)[C@@H](O[C@H]3O[C@H](CO)[C@@H](O)[C@H](N)[C@H]3O)[C@H](N)C[C@@H]2N)[C@H](O)[C@@H](O)[C@@H]1O", "assay": "purified protein"}, "[2]": {"target": "the molecule itself", "assay": "SEC; untreated protein, 100 ug, Superose 6 Increase 10/300 GL, 10 mM Tris-Cl pH 8.0, 150 mM NaCl, 1 mM EDTA, 0.5 mM beta-ME, 25°C, 0.5 ml/min; calibrated with molecular weight markers"}, "[3]": {"target": "the molecule itself", "assay": "SDS-PAGE of unboiled sample; 10 ug unboiled protein on 8% SDS-PAGE, loading dye with 1% SDS, 0.125 M Tris pH 6.8, 40% glycerol; Coomassie stain"}, "[4]": {"conditions": "fixed acetyl-CoA (500 μM in the standard assay), 2 mM DTNB, 0.5 μM enzyme, 20 mM phosphate pH 8.0, 25°C"}}}
{"molecule": "MsEis (Mycolicibacterium smegmatis MC2 155)", "values": [{"measurement": "Km", "setting": "[1]; [4]", "value": "21 ± 0.1", "unit": "µM"}, {"measurement": "Vmax", "setting": "[1]; [4]", "value": 4.8, "unit": "µM/min"}, {"measurement": "kcat", "setting": "[1]; [4]", "value": "0.027 ± 0.005", "unit": "s⁻¹"}, {"measurement": "kcat/Km", "setting": "[1]; [4]", "value": "1270 ± 22", "unit": "M⁻¹ s⁻¹"}]}
{"molecule": "RvEis (Mycobacterium tuberculosis H37Rv)", "values": [{"measurement": "Km", "setting": "[1]; pH 8.0, 25.0 °C", "value": "11 ± 1.6", "unit": "µM"}, {"measurement": "Vmax", "setting": "[1]; pH 8.0, 25.0 °C", "value": 4, "unit": "µM/min"}, {"measurement": "kcat/Km", "setting": "[1]; pH 8.0, 25.0 °C", "value": 2140, "unit": "M⁻¹ s⁻¹"}]}
{"molecule": "M. smegmatis Eis (MSMEG_3513) protein (enzyme, UniProt A0QY29 1-402, looked up, also called MsEis; Enhanced Intracellular Survival protein from M. smegmatis) MITPRTLHTITDDDWTRIALLARFAFGDIEPEQTQAAWRSMVPEDATVVVPDETDDAFVGQSLYLDMQLTVPGGEVLPVAGISFVAVAPTHRRRGVLRAMYTELHDRIARAGYPLAVLTASEGGIYGRFGYGVATIEQHVSVDRRLAQFHPAAPDPGGVRMLVPADHRDGLADIYDRWRRRTPGGLVRPDALWDDLLADRPESRRGGGELFAFGHQDGYALYRVDRGPDGRRSAHVVELTAVTADAHAALWRALLGLDLIDRVSIGTHPHDPLPYLLTDPRQAQVTASADDLWIRIMNVPAALEARRYQADLDVVLDVADGFRSDGGRFALQISGGRARCTTTDAPADIEIDLDVLGGLYLGAHRVDGFAAANRLRSKDSELLQQFGAAFAGDMPAELGYGF", "values": [{"measurement": "stoichiometry N", "setting": "[2]", "value": 6}]}
{"molecule": "M. tuberculosis Eis (Rv2416c, Enhanced Intracellular Survival protein) (enzyme, also called RvEis; not shown: His tag, N-terminal, kept) MTVTLCSPTEDDWPGMFLLAAASFTDFIGPESATAWRTLVPTDGAVVVRDGAGPGSEVVGMALYMDLRLTVPGEVVLPTAGLSFVAVAPTHRRRGLLRAMCAELHRRIADSGYPVAALHASEGGIYGRFGYGPATTLHELTVDRRFARFHADAPGGGLGGSSVRLVRPTEHRGEFEAIYERWRQQVPGGLLRPQVLWDELLAECKAAPGGDRESFALLHPDGYALYRVDRTDLKLARVSELRAVTADAHCALWRALIGLDSMERISIITHPQDPLPHLLTDTRLARTTWRQDGLWLRIMNVPAALEARGYAHEVGEFSTVLEVSDGGRFALKIGDGRARCTPTDAAAEIEMDRDVLGSLYLGAHRASTLAAANRLRTKDSQLLRRLDAAFASDVPVQTAFEF", "values": [{"measurement": "stoichiometry N", "setting": "[3]", "value": 3}, {"measurement": "stoichiometry N", "setting": "[2]", "value": 6}]}
